In patent US20260250398A1 (ANTLERA THERAPEUTICS, published 2026):
Numbering of substitutions follows the chain as printed. One block for each binder: values may come before it.

Target: T1, LRP6 (low-density lipoprotein receptor-related protein 6) (UniProt O75581 20-1370, limits assumed)
T1 sequence (looked up): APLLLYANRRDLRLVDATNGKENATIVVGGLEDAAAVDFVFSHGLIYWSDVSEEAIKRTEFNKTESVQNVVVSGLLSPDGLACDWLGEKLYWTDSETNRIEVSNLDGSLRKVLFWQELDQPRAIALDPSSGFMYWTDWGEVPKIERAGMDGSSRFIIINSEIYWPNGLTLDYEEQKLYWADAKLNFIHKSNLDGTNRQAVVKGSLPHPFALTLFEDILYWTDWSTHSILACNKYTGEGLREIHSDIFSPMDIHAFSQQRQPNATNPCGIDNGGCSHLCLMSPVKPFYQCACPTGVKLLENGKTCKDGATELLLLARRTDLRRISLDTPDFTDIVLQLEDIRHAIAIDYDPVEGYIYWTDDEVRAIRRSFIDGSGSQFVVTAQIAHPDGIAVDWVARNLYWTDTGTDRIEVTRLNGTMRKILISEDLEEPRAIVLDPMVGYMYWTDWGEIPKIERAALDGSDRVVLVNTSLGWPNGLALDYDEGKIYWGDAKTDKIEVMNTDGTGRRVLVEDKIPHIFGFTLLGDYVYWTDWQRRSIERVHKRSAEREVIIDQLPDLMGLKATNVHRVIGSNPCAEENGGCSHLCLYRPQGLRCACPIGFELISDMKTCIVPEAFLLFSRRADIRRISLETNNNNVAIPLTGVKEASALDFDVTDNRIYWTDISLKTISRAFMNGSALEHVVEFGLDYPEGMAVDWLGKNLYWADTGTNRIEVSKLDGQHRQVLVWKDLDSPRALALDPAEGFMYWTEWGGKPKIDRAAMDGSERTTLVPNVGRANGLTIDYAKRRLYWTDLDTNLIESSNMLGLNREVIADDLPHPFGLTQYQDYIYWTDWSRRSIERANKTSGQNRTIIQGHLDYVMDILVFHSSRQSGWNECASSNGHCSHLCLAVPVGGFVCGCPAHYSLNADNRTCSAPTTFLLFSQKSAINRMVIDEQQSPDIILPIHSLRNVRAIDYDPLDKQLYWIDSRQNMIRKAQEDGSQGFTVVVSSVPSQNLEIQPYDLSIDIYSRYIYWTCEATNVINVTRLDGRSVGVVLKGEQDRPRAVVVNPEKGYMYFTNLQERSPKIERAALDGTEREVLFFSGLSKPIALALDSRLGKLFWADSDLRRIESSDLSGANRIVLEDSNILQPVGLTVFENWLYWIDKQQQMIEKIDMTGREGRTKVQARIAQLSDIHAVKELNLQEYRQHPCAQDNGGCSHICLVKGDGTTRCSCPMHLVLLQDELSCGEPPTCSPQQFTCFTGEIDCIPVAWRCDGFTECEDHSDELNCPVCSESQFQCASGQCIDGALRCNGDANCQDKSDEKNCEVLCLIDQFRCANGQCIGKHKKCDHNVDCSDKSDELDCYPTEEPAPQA
Assay: cell-based or functional assay

TOPFLASH % Wnt Maxima: 57 % Wnt Maxima
B1: CT0001 (FZD IgG-LRP Diabody; paratopes 5016; 2539, 2542) (bispecific antibody)
heavy 1: EVQLVESGGGLVQPGGSLRLSCAASGFNIHSSSIHWVRQAPGKGLEWVAATYSSFGSITYADSVKGRFTISADTSKNTAYLQMNSLRAEDTAVYYCARYHHPFGYALDYWGQGTLVTVSSASTKGPSVFPLAPSSKSTSGGTAALGCLVKDYFPEPVTVSWNSGALTSGVHTFPAVLQSSGLYSLSSVVTVPSSSLGTQTYICNVNHKPSNTKVDKKVEPKSCDKTHTCPPCPAPELLGGPSVFLFPPKPKDTLMISRTPEVTCVVVDVSHEDPEVKFNWYVDGVEVHNAKTKPREEQYNSTYRVVSVLTVLHQDWLNGKEYKCKVSNKALPAPIEKTISKAKGQPREPQVYTLPPIRELMTSNQVSLSCAVKGFYPSDIAVEWESNGQPENNYKTTPPVLDSDGSFFLVSKLTVDKSRWQQGNVFSCSVMHEALHNHYTQKSLSLSPGKSGSETPGTSESATPESGGGEVQLVESGGGLVQPGGSLRLSCAASGFNISSYYIHWVRQAPGKGLEWVASIYSSYGYTSYADSVKGRFTISADTSKNTAYLQMNSLRAEDTAVYYCARTVRGSKKPYFSGWAMDYWGQGTLVTVSSGGGGSDIQMTQSPSSLSASVGDRVTITCRASQSVSSAVAWYQQKPGKAPKLLIYSASSLYSGVPSRFSGSRSGTDFTLTISSLQPEDFATYYCQQYSWGPFTFGQGTKVEIK
heavy 2: EVQLVESGGGLVQPGGSLRLSCAASGFNIHSSSIHWVRQAPGKGLEWVAATYSSFGSITYADSVKGRFTISADTSKNTAYLQMNSLRAEDTAVYYCARYHHPFGYALDYWGQGTLVTVSSASTKGPSVFPLAPSSKSTSGGTAALGCLVKDYFPEPVTVSWNSGALTSGVHTFPAVLQSSGLYSLSSVVTVPSSSLGTQTYICNVNHKPSNTKVDKKVEPKSCDKTHTCPPCPAPELLGGPSVFLFPPKPKDTLMISRTPEVTCVVVDVSHEDPEVKFNWYVDGVEVHNAKTKPREEQYNSTYRVVSVLTVLHQDWLNGKEYKCKVSNKALPAPIEKTISKAKGQPREPMVFDLPPSREEMTKNQVSLWCMVKGFYPSDIAVEWESNGQPENNYKTTPPVLDSDGSFFLYSKLTVDKSRWQQGNVFSCSVMHEALHNHYTQKSLSLSPGKSGSETPGTSESATPESGGGEVQLVESGGGLVQPGGSLRLSCAASGFNISYSSIHWVRQAPGKGLEWVAYISSYYGYTYYADSVKGRFTISADTSKNTAYLQMNSLRAEDTAVYYCARAHYFPWAGAMDYWGQGTLVTVSSGGGGSDIQMTQSPSSLSASVGDRVTITCRASQSVSSAVAWYQQKPGKAPKLLIYSASSLYSGVPSRFSGSRSGTDFTLTISSLQPEDFATYYCQQYYWPITFGQGTKVEIK
light: DIQMTQSPSSLSASVGDRVTITCRASQSVSSAVAWYQQKPGKAPKLLIYSASSLYSGVPSRFSGSRSGTDFTLTISSLQPEDFATYYCQQGVYLFTFGQGTKVEIKRTVAAPSVFIFPPSDEQLKSGTASVVCLLNNFYPREAKVQWKVDNALQSGNSQESVTEQDSKDSTYSLSSTLTLSKADYEKHKVYACEVTHQGLSSPVTKSFNRGEC

TOPFLASH % Wnt Maxima: 63 % Wnt Maxima
B2: CM0011 (FZD Diabody-Fc-LRP Diabody; paratopes 5019; 2539, 2542) (bispecific antibody)
chain 1: MNLLLILTFVAAAVAEFEVQLVESGGGLVQPGGSLRLSCAASGFNIGSSSIHWVRQAPGKGLEWVASIYSAFASTSYADSVKGRFTISADTSKNTAYLQMNSLRAEDTAVYYCARYHFPFGFALDYWGQGTLVTVSSGGGGSDIQMTQSPSSLSASVGDRVTITCRASQSVSSAVAWYQQKPGKAPKLLIYSASSLYSGVPSRFSGSRSGTDFTLTISSLQPEDFATYYCQQGVYLFTFGQGTKVEIKLEDKTHTKVEPKSSDKTHNCPPCPAPELLGGPSVFLFPPKPKDTLMISRTPEVTCVVVDVSHEDPEVKFNWYVDGVEVHNAKTKPREEQYNSTYRVVSVLTVLHQDWLNGKEYKCKVSNKALPAPIEKTISKAKGQPREPQVYTLPPIRELMTSNQVSLSCAVKGFYPSDIAVEWESNGQPENNYKTTPPVLDSDGSFFLVSKLTVDKSRWQQGNVFSCSVMHEALHNHYTQKSLSLSPGKSGSETPGTSESATPESGGGEVQLVESGGGLVQPGGSLRLSCAASGFNISSYYIHWVRQAPGKGLEWVASIYSSYGYTSYADSVKGRFTISADTSKNTAYLQMNSLRAEDTAVYYCARTVRGSKKPYFSGWAMDYWGQGTLVTVSSGGGGSDIQMTQSPSSLSASVGDRVTITCRASQSVSSAVAWYQQKPGKAPKLLIYSASSLYSGVPSRFSGSRSGTDFTLTISSLQPEDFATYYCQQYSWGPFTFGQGTKVEIK
chain 2: MNLLLILTFVAAAVAEFEVQLVESGGGLVQPGGSLRLSCAASGFNIGSSSIHWVRQAPGKGLEWVASIYSAFASTSYADSVKGRFTISADTSKNTAYLQMNSLRAEDTAVYYCARYHFPFGFALDYWGQGTLVTVSSGGGGSDIQMTQSPSSLSASVGDRVTITCRASQSVSSAVAWYQQKPGKAPKLLIYSASSLYSGVPSRFSGSRSGTDFTLTISSLQPEDFATYYCQQGVYLFTFGQGTKVEIKLEDKTHTKVEPKTSDKTHTCPPCPAPELLGGPSVFLFPPKPKDTLMISRTPEVTCVVVDVSHEDPEVKFNWYVDGVEVHNAKTKPREEQYNSTYRVVSVLTVLHQDWLNGKEYKCKVSNKALPAPIEKTISKAKGQPREPMVFDLPPSREEMTKNQVSLWCMVKGFYPSDIAVEWESNGQPENNYKTTPPVLDSDGSFFLYSKLTVDKSRWQQGNVFSCSVMHEALHNHYTQKSLSLSPGKSGSETPGTSESATPESGGGEVQLVESGGGLVQPGGSLRLSCAASGFNISYSSIHWVRQAPGKGLEWVAYISSYYGYTYYADSVKGRFTISADTSKNTAYLQMNSLRAEDTAVYYCARAHYFPWAGAMDYWGQGTLVTVSSGGGGSDIQMTQSPSSLSASVGDRVTITCRASQSVSSAVAWYQQKPGKAPKLLIYSASSLYSGVPSRFSGSRSGTDFTLTISSLQPEDFATYYCQQYYWPITFGQGTKVEIK

TOPFLASH % Wnt Maxima: 52 % Wnt Maxima
B3: CM0126 (FZD Diabody-Fc-LRP Diabody; paratopes 5016; 2539, 2542) (bispecific antibody)
chain 1: B2 chain 1 with G47H, S67A, I68T, A71S, A73G, T75I, S76T, F118H, F122Y
chain 2: B2 chain 2 with G47H, S67A, I68T, A71S, A73G, T75I, S76T, F118H, F122Y
